For test [1], the target named is T1, soluble EGFR (human epithelial cell growth factor receptor 1, Her1) (human, UniProt P00533 25-645, limits assumed).
T1 construct: The metal chelate purification implies a His tag, but none is described; also called target antigen
In words: ITC, 50 uM Fv titrated into 5 uM soluble EGFR. Here is the method:
(§1) The resulting mutants were then subjected to thermodynamic analysis by means of Isothermal Titration calorimeter. […] Binding enthalpy (ΔH) and binding coefficient (Ka) were calculated from the change of calorie during the above titration. Free Energy Change (ΔG) and Binding Entropy Change (ΔS) were then calculated from the above values.
For orientation: Isothermal titration calorimetry measures the heat released or taken up as one component is titrated into another.

The target of test [2] is T1, soluble EGFR (human epithelial cell …). In words: ITC; lower end tied to 5.0.0 by Table 4 (14.9 against 1.9). The protocol:
as §1

Six molecules from US20130131320A1 (TOHOKU UNIVERSITY, published 2013) can be followed below.

Residue numbers refer to the chain shown, from its start.

B1: h528Fv WT (other)
VH: QVQLVQSGAEVKKPGASVKVSCKASGYTFTSYWMHWVRQAPGQGLEWMGNIYPGSGGTNYAEKFKNRVTMTRDTSISTAYMELSRLRSDDTAVYYCARSGGPYFFDYWGQGTLVTVSS
VL: DIVMTQSPLSLPVTPGEPASISCRSSQNIVHNNGITYLEWYLQKPGQSPQLLIYKVSDRFSGVPDRFSGSGSGTDFTLKISRVEAEDVGVYYCFQGSHIPPTFGQGTKVEIKR
notes: Fv fragment: VH and VL co-expressed in E. coli BL21; Purified by metal chelate chromatography; the tag is not described; also called wild type humanized Fv
In test [1], B1 registered a Ka of 1.9e+07 M⁻¹, a TΔS of -4.66 kcal/mol, a ΔG of -9.92 kcal/mol and a ΔH of -14.6 kcal/mol.

B2: h528Fv 5.12.0 (other)
VH: B1 VH with Y52W, S55K, K65Q, N66K
VL: B1 VL
As to B2, in test [1], the Ka came to 4.42e+08 M⁻¹, the TΔS was -4.88 kcal/mol, the ΔG is -11.8 kcal/mol and the ΔH was -16.7 kcal/mol.

B3: h528Fv 5.98.0 (other)
VH: B1 VH with Y52W, S55Q, N66S
VL: B1 VL
With B3, in test [1], the Ka amounted to 5.05e+08 M⁻¹, the TΔS is -6.43 kcal/mol, the ΔG is -11.9 kcal/mol and the ΔH is -18.4 kcal/mol.

B4: h528Fv 5.11.T (other)
VH: B1 VH with Y52W, S55T, K65Q, N66Q, A97T
VL: B1 VL
For B4, in test [1], the Ka came out at 5.24e+08 M⁻¹, the TΔS is -8.08 kcal/mol, the ΔG was -11.9 kcal/mol and the ΔH is -20 kcal/mol.

B5: h528Fv 5.0.0 (other)
VH: B1 VH with Y52W
VL: B1 VL
In test [1], B5 gave a Ka of 1.49e+08 M⁻¹, a TΔS of -9.85 kcal/mol, a ΔG of -11.2 kcal/mol and a ΔH of -21 kcal/mol. For the same molecule, in test [2], the “fold increase of Ka over h528Fv WT” value lay in the range of 8 to 33 fold.

B6: h528Fv 5.73.0 (other)
VH: B1 VH with Y52W, S55N, K63Q, N66Q
VL: B1 VL
In test [1], B6 gave a Ka of 4.95e+08 M⁻¹, a TΔS of -5.14 kcal/mol, a ΔG of -11.9 kcal/mol and a ΔH of -17 kcal/mol.
